Laboratory results from publication PMC7407159.

Biological target: T1, histidine tagged full length homo sapiens mitofusin 1 (hsMfn1) (human), Q8IWA4
T1 chain: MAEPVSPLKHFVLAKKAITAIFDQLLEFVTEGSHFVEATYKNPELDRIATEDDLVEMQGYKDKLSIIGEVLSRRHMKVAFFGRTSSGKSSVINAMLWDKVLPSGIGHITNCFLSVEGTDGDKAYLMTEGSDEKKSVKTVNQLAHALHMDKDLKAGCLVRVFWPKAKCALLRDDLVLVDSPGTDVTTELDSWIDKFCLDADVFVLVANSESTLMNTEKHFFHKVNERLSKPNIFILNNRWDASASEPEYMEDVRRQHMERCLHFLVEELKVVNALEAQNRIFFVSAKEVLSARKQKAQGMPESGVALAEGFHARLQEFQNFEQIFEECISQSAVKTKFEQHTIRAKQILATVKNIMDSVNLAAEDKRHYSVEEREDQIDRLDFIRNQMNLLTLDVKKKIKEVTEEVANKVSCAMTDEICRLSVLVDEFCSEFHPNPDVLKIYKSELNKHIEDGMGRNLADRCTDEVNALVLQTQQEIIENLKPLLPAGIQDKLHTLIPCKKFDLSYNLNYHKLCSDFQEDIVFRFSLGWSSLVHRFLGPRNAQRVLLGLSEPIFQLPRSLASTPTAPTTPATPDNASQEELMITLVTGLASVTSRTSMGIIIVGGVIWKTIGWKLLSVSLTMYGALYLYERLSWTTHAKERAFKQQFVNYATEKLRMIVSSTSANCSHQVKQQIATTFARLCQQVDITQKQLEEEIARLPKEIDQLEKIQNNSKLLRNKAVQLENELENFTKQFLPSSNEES
Assay: vesicle adhesion (shape of adhered GUV doublets by confocal microscopy), adhesion strength fitted to a cooperative binding model; His-Mfn1 (detergent resistant fraction of Mfn1-IMVs) bound by its histidine tag to POPC/DOGS-NTA GUVs with 10, 15, 20 and 25 mol% DOGS-NTA; 10 mM GDP, 2.5 mM …; 22 °C; Eadh against [NTA] fitted to Equation (6); two-dimensional binding equilibrium constant for planar membranes, Mfn1 with …
Settings: remark: other sources report otherwise

two-dimensional binding equilibrium constant for planar membranes (K2D' of Equation 6, printed as KD') (nm^2 per molecule): 0.1
B1: histidine tagged full length homo sapiens mitofusin 1 (hsMfn1), Q8IWA4 1-741 (natural protein)
chain: MAEPVSPLKHFVLAKKAITAIFDQLLEFVTEGSHFVEATYKNPELDRIATEDDLVEMQGYKDKLSIIGEVLSRRHMKVAFFGRTSSGKSSVINAMLWDKVLPSGIGHITNCFLSVEGTDGDKAYLMTEGSDEKKSVKTVNQLAHALHMDKDLKAGCLVRVFWPKAKCALLRDDLVLVDSPGTDVTTELDSWIDKFCLDADVFVLVANSESTLMNTEKHFFHKVNERLSKPNIFILNNRWDASASEPEYMEDVRRQHMERCLHFLVEELKVVNALEAQNRIFFVSAKEVLSARKQKAQGMPESGVALAEGFHARLQEFQNFEQIFEECISQSAVKTKFEQHTIRAKQILATVKNIMDSVNLAAEDKRHYSVEEREDQIDRLDFIRNQMNLLTLDVKKKIKEVTEEVANKVSCAMTDEICRLSVLVDEFCSEFHPNPDVLKIYKSELNKHIEDGMGRNLADRCTDEVNALVLQTQQEIIENLKPLLPAGIQDKLHTLIPCKKFDLSYNLNYHKLCSDFQEDIVFRFSLGWSSLVHRFLGPRNAQRVLLGLSEPIFQLPRSLASTPTAPTTPATPDNASQEELMITLVTGLASVTSRTSMGIIIVGGVIWKTIGWKLLSVSLTMYGALYLYERLSWTTHAKERAFKQQFVNYATEKLRMIVSSTSANCSHQVKQQIATTFARLCQQVDITQKQLEEEIARLPKEIDQLEKIQNNSKLLRNKAVQLENELENFTKQFLPSSNEES
